# According to patent EP4667491A1 (Genome and Company, dated 2025):
# Numbering of substitutions follows the chain as printed. Names may count otherwise.
# T1: human CNTN4 expressed on the cell surface (human, UniProt Q8IWV2 19-1000)
# T1 construct: whole, on cells; also called human CNTN4 cell
# T1 sequence (looked up): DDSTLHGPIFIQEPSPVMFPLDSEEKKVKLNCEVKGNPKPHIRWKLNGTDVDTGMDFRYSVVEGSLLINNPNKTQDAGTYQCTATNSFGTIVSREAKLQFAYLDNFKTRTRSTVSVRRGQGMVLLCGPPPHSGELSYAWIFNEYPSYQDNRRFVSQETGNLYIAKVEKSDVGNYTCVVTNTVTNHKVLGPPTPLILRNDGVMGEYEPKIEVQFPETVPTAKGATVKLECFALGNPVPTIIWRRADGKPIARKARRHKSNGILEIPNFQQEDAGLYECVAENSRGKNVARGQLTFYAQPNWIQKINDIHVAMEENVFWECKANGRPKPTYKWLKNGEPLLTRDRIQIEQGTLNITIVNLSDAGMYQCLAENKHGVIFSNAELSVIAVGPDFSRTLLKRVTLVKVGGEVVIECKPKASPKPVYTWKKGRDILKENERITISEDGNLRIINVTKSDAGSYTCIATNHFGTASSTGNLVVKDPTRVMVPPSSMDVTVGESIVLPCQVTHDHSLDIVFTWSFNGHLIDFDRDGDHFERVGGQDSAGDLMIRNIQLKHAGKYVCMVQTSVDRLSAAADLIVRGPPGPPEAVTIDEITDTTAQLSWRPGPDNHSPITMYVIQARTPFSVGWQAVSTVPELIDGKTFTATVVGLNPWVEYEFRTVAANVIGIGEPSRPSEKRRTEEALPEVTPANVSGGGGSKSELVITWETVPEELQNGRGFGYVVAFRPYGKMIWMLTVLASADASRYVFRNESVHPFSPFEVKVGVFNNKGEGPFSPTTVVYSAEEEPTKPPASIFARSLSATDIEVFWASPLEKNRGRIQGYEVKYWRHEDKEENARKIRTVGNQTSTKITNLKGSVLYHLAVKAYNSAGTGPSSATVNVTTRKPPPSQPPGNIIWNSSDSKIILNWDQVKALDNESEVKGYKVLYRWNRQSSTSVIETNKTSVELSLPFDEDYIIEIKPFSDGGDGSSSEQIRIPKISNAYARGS
# T2: Human CNTN4 (His-tagged) (human, UniProt Q8IWV2 19-1000, limits assumed)
# T2 construct: also called human CNTN4 protein; not shown: His tag
# T2 sequence (looked up): T1 sequence (looked up)
# B1: A114-IgG antibody (antibody, V domains shown)
# VH: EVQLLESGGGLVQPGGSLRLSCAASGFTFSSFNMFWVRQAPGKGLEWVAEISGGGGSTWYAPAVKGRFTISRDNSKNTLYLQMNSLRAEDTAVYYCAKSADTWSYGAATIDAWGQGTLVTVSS
# VL: ELTQDPAVSVALGQTVRITCSGSSGSYGWYQQKPGQAPVLVIYDNTNRPSGIPDRFSGSSSGNTASLTITGAQAEDEADYYCGGYWGSTDVFGGGTKLTVL
# notes: VH fused to CH1, hinge, CH2 and CH3 of human IgG4 (S228P); also called A114-IgG Ab; Al14-IgG Ab
# B2: A108-IgG antibody (antibody, V domains shown)
# VH: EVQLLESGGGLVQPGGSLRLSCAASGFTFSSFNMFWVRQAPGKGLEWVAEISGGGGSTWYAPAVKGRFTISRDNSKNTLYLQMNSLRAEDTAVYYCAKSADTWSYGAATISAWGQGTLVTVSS
# VL: B1 VL with W86D
# notes: VH fused to CH1, hinge, CH2 and CH3 of human IgG4 (S228P); also called A108-IgG Ab
# B3: A105-IgG antibody (antibody, V domains shown)
# VH: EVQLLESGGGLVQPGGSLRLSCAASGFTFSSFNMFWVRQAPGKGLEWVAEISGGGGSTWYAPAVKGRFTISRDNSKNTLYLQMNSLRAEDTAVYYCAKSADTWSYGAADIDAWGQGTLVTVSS
# VL: B1 VL with W86D
# notes: VH fused to CH1, hinge, CH2 and CH3 of human IgG4 (S228P); also called A105-IgG Ab
# B4: A104-IgG antibody (antibody, V domains shown)
# VH: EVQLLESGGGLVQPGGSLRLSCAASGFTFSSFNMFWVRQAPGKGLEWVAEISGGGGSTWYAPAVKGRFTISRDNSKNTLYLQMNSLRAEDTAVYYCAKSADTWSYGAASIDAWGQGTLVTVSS
# VL: B1 VL with W86D
# notes: VH fused to CH1, hinge, CH2 and CH3 of human IgG4 (S228P); also called A104-IgG Ab
# B5: A109-IgG antibody (antibody, V domains shown)
# VH: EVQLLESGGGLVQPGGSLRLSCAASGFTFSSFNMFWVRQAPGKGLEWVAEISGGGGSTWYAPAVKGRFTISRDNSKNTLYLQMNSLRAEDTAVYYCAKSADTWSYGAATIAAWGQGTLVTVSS
# VL: B1 VL with W86D
# notes: VH fused to CH1, hinge, CH2 and CH3 of human IgG4 (S228P); also called A109-IgG Ab
# B6: A112-IgG antibody (antibody, V domains shown)
# VH: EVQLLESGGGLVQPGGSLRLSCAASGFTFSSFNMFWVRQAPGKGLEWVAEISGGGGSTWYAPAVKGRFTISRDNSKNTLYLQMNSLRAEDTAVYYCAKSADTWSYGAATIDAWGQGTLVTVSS
# VL: B1 VL with S23R, W86D
# notes: VH fused to CH1, hinge, CH2 and CH3 of human IgG4 (S228P); also called A112-IgG Ab
# B7: A102-IgG antibody (antibody, V domains shown)
# VH: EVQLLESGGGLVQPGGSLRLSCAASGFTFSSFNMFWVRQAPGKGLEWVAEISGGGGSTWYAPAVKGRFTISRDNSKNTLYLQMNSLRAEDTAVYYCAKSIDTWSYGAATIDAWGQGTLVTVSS
# VL: B1 VL with W86D
# notes: VH fused to CH1, hinge, CH2 and CH3 of human IgG4 (S228P); also called A102-IgG Ab
# B8: A106-IgG antibody (antibody, V domains shown)
# VH: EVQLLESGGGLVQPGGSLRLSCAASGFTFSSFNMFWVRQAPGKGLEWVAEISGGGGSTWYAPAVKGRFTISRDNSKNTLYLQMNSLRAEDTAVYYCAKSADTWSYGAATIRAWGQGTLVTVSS
# VL: B1 VL with W86D
# notes: VH fused to CH1, hinge, CH2 and CH3 of human IgG4 (S228P); also called A106-IgG Ab
# B9: A103-IgG antibody (antibody, V domains shown)
# VH: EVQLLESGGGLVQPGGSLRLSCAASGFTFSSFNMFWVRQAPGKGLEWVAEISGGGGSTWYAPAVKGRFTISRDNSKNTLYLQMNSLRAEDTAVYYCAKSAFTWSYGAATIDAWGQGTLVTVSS
# VL: B1 VL with W86D
# notes: VH fused to CH1, hinge, CH2 and CH3 of human IgG4 (S228P); also called A103-IgG Ab
# B10: A211-IgG antibody (antibody, V domains shown)
# VH: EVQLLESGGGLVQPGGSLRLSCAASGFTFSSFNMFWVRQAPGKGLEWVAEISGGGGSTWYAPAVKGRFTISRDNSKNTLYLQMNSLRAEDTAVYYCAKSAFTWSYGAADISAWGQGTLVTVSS
# VL: B1 VL with S23R
# notes: VH fused to CH1, hinge, CH2 and CH3 of human IgG4 (S228P); also called A211-IgG Ab
# B11: A217-IgG antibody (antibody, V domains shown)
# VH: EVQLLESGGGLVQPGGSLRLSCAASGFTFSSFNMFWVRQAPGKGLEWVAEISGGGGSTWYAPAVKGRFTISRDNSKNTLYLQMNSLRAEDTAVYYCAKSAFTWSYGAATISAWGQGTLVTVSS
# VL: B1 VL
# notes: VH fused to CH1, hinge, CH2 and CH3 of human IgG4 (S228P); also called A217-IgG Ab
# B12: A209-IgG antibody (antibody, V domains shown)
# VH: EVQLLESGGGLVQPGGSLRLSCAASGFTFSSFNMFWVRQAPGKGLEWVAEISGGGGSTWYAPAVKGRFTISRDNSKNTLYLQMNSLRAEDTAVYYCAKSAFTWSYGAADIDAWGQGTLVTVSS
# VL: B1 VL with S23R
# notes: VH fused to CH1, hinge, CH2 and CH3 of human IgG4 (S228P); also called A209-IgG Ab; A209-TgG Ab
# B13: A204-IgG antibody (antibody, V domains shown)
# VH: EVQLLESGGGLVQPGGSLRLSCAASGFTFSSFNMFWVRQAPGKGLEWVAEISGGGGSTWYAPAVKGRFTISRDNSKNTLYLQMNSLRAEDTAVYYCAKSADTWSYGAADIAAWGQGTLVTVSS
# VL: B1 VL with S23R
# notes: VH fused to CH1, hinge, CH2 and CH3 of human IgG4 (S228P); also called A204-IgG Ab
# B14: A206-IgG antibody (antibody, V domains shown)
# VH: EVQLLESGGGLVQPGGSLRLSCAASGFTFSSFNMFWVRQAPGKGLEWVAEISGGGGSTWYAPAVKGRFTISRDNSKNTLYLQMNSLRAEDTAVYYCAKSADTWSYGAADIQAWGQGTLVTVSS
# VL: B1 VL with S23R
# notes: VH fused to CH1, hinge, CH2 and CH3 of human IgG4 (S228P); also called A206-IgG Ab
# B15: A202-IgG antibody (antibody, V domains shown)
# VH: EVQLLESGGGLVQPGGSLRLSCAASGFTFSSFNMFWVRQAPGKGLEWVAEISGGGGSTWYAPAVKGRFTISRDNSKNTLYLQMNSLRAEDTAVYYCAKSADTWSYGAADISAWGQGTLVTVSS
# VL: B1 VL with S23R
# notes: VH fused to CH1, hinge, CH2 and CH3 of human IgG4 (S228P); also called A202-IgG Ab
# Biological target: T1, human CNTN4 expressed on the cell …
# Test: flow cytometry; IgG on human CNTN4-overexpressing HEK293 cells
EC50 [nM],TOP MFI [MFI],Binder
0.262,470,B1
0.074,356,B2
0.234,454,B3
0.109,358,B4
0.082,357,B5
0.204,422,B6
0.066,328,B7
0.086,336,B8
0.09,378,B9

# Biological target: T1, human CNTN4 expressed on the cell …
# Test: as above
# Remark: another data set of the same source
row,EC50 [nM],Binder
1,0.539,B1
2,0.316,B10

# Biological target: T2, Human CNTN4 (His-tagged)
# Test: SPR; IgG captured on CM5 chip, His-tagged human CNTN4 as analyte, 1:1 fit
row,Kd [nM],Binder
1,1.18,B11
2,0.709,B10
3,0.662,B12
4,0.663,B13
5,0.702,B14

# Biological target: T2, Human CNTN4 (His-tagged)
# Test: ELISA; His-tagged human CNTN4 captured by anti-His antibody, anti-human IgG-HRP
row,EC50 [nM],Binder
1,0.129,B1
2,0.034,B2
3,0.153,B3
4,0.069,B4
5,0.041,B5
6,0.075,B6
7,0.057,B7
8,0.042,B8
9,0.031,B9

# Biological target: T2, Human CNTN4 (His-tagged)
# Test: as above
# Remark: another data set of the same source
row,EC50 [nM],Binder
1,0.033,B11
2,0.033,B10
3,0.026,B12
4,0.015,B13
5,0.027,B14
6,0.035,B15
